± gives the uncertainty stated by the source.
B1: Max-interacting protein 1, residues 70 to 120; numbered along this chain, P50539 (parent)
chain: STHNELEKNRRAHLRLCLERLKVLIPLGPDCTRHTTLGLLNKAKAHIKKLE

Variants of: B1
Test: abundance fitness (aPCA) (normalised: wild type 0, dead -1); higher = more abundant; growth selection in yeast, the domain comes from the species named
Conditions: Homo sapiens

Variant	abundance fitness
STHNEHEKNRRAHLRLCLERLKVLIPLGPDCTRHTTLGLLNKAKAHIKKLE [L6H]	0.519 ± 0.2
STHNEIEKNRRAHLRLCLERLKVLIPLGPDCTRHTTLGLLNKAKAHIKKLE [L6I]	-0.189 ± 0.2
STHNEKEKNRRAHLRLCLERLKVLIPLGPDCTRHTTLGLLNKAKAHIKKLE [L6K]	-0.086 ± 0.13
STHNEMEKNRRAHLRLCLERLKVLIPLGPDCTRHTTLGLLNKAKAHIKKLE [L6M]	-0.247 ± 0.13
STHNENEKNRRAHLRLCLERLKVLIPLGPDCTRHTTLGLLNKAKAHIKKLE [L6N]	-0.329 ± 0.31
STHNEPEKNRRAHLRLCLERLKVLIPLGPDCTRHTTLGLLNKAKAHIKKLE [L6P]	0.36 ± 0.16
STHNEQEKNRRAHLRLCLERLKVLIPLGPDCTRHTTLGLLNKAKAHIKKLE [L6Q]	0.18 ± 0.13
STHNEREKNRRAHLRLCLERLKVLIPLGPDCTRHTTLGLLNKAKAHIKKLE [L6R]	0.172 ± 0.082
STHNESEKNRRAHLRLCLERLKVLIPLGPDCTRHTTLGLLNKAKAHIKKLE [L6S]	0.096 ± 0.1
STHNETEKNRRAHLRLCLERLKVLIPLGPDCTRHTTLGLLNKAKAHIKKLE [L6T]	-0.025 ± 0.11
STHNEVEKNRRAHLRLCLERLKVLIPLGPDCTRHTTLGLLNKAKAHIKKLE [L6V]	-0.005 ± 0.093
STHNEWEKNRRAHLRLCLERLKVLIPLGPDCTRHTTLGLLNKAKAHIKKLE [L6W]	-0.566 ± 0.096
STHNEYEKNRRAHLRLCLERLKVLIPLGPDCTRHTTLGLLNKAKAHIKKLE [L6Y]	-0.277 ± 0.31
STHNELAKNRRAHLRLCLERLKVLIPLGPDCTRHTTLGLLNKAKAHIKKLE [E7A]	-0.263 ± 0.09
STHNELCKNRRAHLRLCLERLKVLIPLGPDCTRHTTLGLLNKAKAHIKKLE [E7C]	-0.267 ± 0.11
STHNELDKNRRAHLRLCLERLKVLIPLGPDCTRHTTLGLLNKAKAHIKKLE [E7D]	-0.184 ± 0.13
STHNELFKNRRAHLRLCLERLKVLIPLGPDCTRHTTLGLLNKAKAHIKKLE [E7F]	-0.273 ± 0.15
STHNELGKNRRAHLRLCLERLKVLIPLGPDCTRHTTLGLLNKAKAHIKKLE [E7G]	-0.099 ± 0.081
STHNELHKNRRAHLRLCLERLKVLIPLGPDCTRHTTLGLLNKAKAHIKKLE [E7H]	-0.3 ± 0.16
STHNELIKNRRAHLRLCLERLKVLIPLGPDCTRHTTLGLLNKAKAHIKKLE [E7I]	-0.479 ± 0.14
STHNELKKNRRAHLRLCLERLKVLIPLGPDCTRHTTLGLLNKAKAHIKKLE [E7K]	0.061 ± 0.13
STHNELLKNRRAHLRLCLERLKVLIPLGPDCTRHTTLGLLNKAKAHIKKLE [E7L]	-0.109 ± 0.091
STHNELMKNRRAHLRLCLERLKVLIPLGPDCTRHTTLGLLNKAKAHIKKLE [E7M]	-0.173 ± 0.12
STHNELNKNRRAHLRLCLERLKVLIPLGPDCTRHTTLGLLNKAKAHIKKLE [E7N]	0.176 ± 0.24
STHNELQKNRRAHLRLCLERLKVLIPLGPDCTRHTTLGLLNKAKAHIKKLE [E7Q]	-0.169 ± 0.13
STHNELRKNRRAHLRLCLERLKVLIPLGPDCTRHTTLGLLNKAKAHIKKLE [E7R]	-0.161 ± 0.086

Variant	abundance fitness
STHNELSKNRRAHLRLCLERLKVLIPLGPDCTRHTTLGLLNKAKAHIKKLE [E7S]	0.06 ± 0.095
STHNELTKNRRAHLRLCLERLKVLIPLGPDCTRHTTLGLLNKAKAHIKKLE [E7T]	-0.468 ± 0.14
STHNELVKNRRAHLRLCLERLKVLIPLGPDCTRHTTLGLLNKAKAHIKKLE [E7V]	-0.185 ± 0.092
STHNELWKNRRAHLRLCLERLKVLIPLGPDCTRHTTLGLLNKAKAHIKKLE [E7W]	-0.004 ± 0.11
STHNELYKNRRAHLRLCLERLKVLIPLGPDCTRHTTLGLLNKAKAHIKKLE [E7Y]	-0.205 ± 0.15
STHNELEANRRAHLRLCLERLKVLIPLGPDCTRHTTLGLLNKAKAHIKKLE [K8A]	-0.386 ± 0.089
STHNELECNRRAHLRLCLERLKVLIPLGPDCTRHTTLGLLNKAKAHIKKLE [K8C]	-0.278 ± 0.15
STHNELEDNRRAHLRLCLERLKVLIPLGPDCTRHTTLGLLNKAKAHIKKLE [K8D]	-0.568 ± 0.13
STHNELEENRRAHLRLCLERLKVLIPLGPDCTRHTTLGLLNKAKAHIKKLE [K8E]	-0.291 ± 0.11
STHNELEFNRRAHLRLCLERLKVLIPLGPDCTRHTTLGLLNKAKAHIKKLE [K8F]	-0.236 ± 0.13
STHNELEGNRRAHLRLCLERLKVLIPLGPDCTRHTTLGLLNKAKAHIKKLE [K8G]	-0.043 ± 0.087
STHNELEHNRRAHLRLCLERLKVLIPLGPDCTRHTTLGLLNKAKAHIKKLE [K8H]	-0.205 ± 0.14
STHNELEINRRAHLRLCLERLKVLIPLGPDCTRHTTLGLLNKAKAHIKKLE [K8I]	-0.536 ± 0.23
STHNELELNRRAHLRLCLERLKVLIPLGPDCTRHTTLGLLNKAKAHIKKLE [K8L]	-0.232 ± 0.11
STHNELEMNRRAHLRLCLERLKVLIPLGPDCTRHTTLGLLNKAKAHIKKLE [K8M]	-0.511 ± 0.14
STHNELENNRRAHLRLCLERLKVLIPLGPDCTRHTTLGLLNKAKAHIKKLE [K8N]	-0.328 ± 0.18
STHNELEPNRRAHLRLCLERLKVLIPLGPDCTRHTTLGLLNKAKAHIKKLE [K8P]	-0.451 ± 0.14
STHNELEQNRRAHLRLCLERLKVLIPLGPDCTRHTTLGLLNKAKAHIKKLE [K8Q]	-0.492 ± 0.22
STHNELERNRRAHLRLCLERLKVLIPLGPDCTRHTTLGLLNKAKAHIKKLE [K8R]	-0.353 ± 0.089
STHNELETNRRAHLRLCLERLKVLIPLGPDCTRHTTLGLLNKAKAHIKKLE [K8T]	-0.377 ± 0.12
STHNELEVNRRAHLRLCLERLKVLIPLGPDCTRHTTLGLLNKAKAHIKKLE [K8V]	-0.338 ± 0.095
STHNELEWNRRAHLRLCLERLKVLIPLGPDCTRHTTLGLLNKAKAHIKKLE [K8W]	-0.444 ± 0.11
STHNELEYNRRAHLRLCLERLKVLIPLGPDCTRHTTLGLLNKAKAHIKKLE [K8Y]	-0.619 ± 0.18
STHNELEKNARAHLRLCLERLKVLIPLGPDCTRHTTLGLLNKAKAHIKKLE [R10A]	0.038 ± 0.088
STHNELEKNCRAHLRLCLERLKVLIPLGPDCTRHTTLGLLNKAKAHIKKLE [R10C]	-0.071 ± 0.14

From the Human Domainome abundance scans (Beltran et al. 2025)
